From patent US20050142131A1 (Eli Lilly, published 2005)

Legend:
[1] = biological target: T1, human amyloid beta fragment 1-10 (human, UniProt P05067 672-681); assay: BIAcore, single concentration of peptide
T1 construct: range 1-10; also called human Aβ 1-10
T1 peptide (looked up): DAEFRHDSGY
Source text: (§1) All dilutions were made with HEPES buffered saline containing Tween 20. A single concentration of a variety of fragments of human Aβ or mouse Aβ 1-40 (BioSource International) was used.

[2] = biological target: T2, mouse Aβ 1-40 (mouse, UniProt P12023 672-711); assay: BIAcore, single concentration of peptide
T2 construct: range 1-40; The range counts on the Aβ peptide, not on the mouse APP precursor
T2 peptide (looked up): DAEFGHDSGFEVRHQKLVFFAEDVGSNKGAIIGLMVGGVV
Source text: as §1

[3] = biological target: T3, human Aβ fragment 10-20 (human, UniProt P05067 681-691); assay: BIAcore, single concentration of peptide
T3 construct: range 10-20; also called human amyloid beta 10-20
T3 peptide (looked up): YEVHHQKLVFF
Source text: as §1

[4] = biological target: T4, human amyloid beta fragment 1-20 (human, UniProt P05067 672-691); assay: BIAcore, single concentration of peptide
T4 construct: range 1-20; also called human Aβ 1-20
T4 peptide (looked up): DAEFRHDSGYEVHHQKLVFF
Source text: as §1

[5] = biological target: T5, human Aβ fragment 16-25 (human, UniProt P05067 687-696); assay: BIAcore, single concentration of peptide
T5 construct: range 16-25; also called human amyloid beta 16-25
T5 peptide (looked up): KLVFFAEDVG
Source text: as §1

[6] = biological target: T6, Amyloid-beta 1-40 (UniProt P05067 672-711); assay: BIAcore 2000 SPR; antibody captured by anti-human Ig, Aβ flowed over; Aβ 1-40; monophasic
T6 construct: range 1-40; The range 1-40 counts on the Aβ peptide, not on the APP precursor; also called Aβ 1-40
Procedure: (§2) Antibody affinity (KD=Kd/Ka) was determined using a BIAcore biosensor 2000 and data analyzed with BIAevaluation (v. 3.1) software. A capture antibody (rabbit anti-mouse Ig or anti-human Ig) was coupled via free amine groups to carboxyl groups on flow cell 2 of a biosensor chip (CM5) using N-ethyl-N-dimethylaminopropyl carbodiimide and N-hydroxysuccinimide (EDC/NHS). A non-specific rabbit IgG was coupled to flow cell 1 as a background control. Monoclonal antibodies were captured to yield 300 resonance units (RU). […] To regenerate the chip, bound anti-Aβ antibody was eluted from the chip using a wash with glycine-HCl (pH 2). A control injection containing no amyloid-beta served as a control for baseline subtraction.

[7] = biological target: T7, β-amyloid peptide (1-42) (UniProt P05067 672-713); assay: competitive ELISA on coated Aβ 1-42 against biotinylated Mu10D5; mean of three experiments (SD 0.6 µg/mL), second set; second set of three experiments (SD 0.6 µg/mL)
T7 construct: range 1-42; The range 1-42 counts on the Aβ peptide, not on the APP precursor; also called Aβ 1-42; Amyloid-beta 1-42
Procedure: (§3) After washing the wells with phosphate buffered saline (PBS) containing 0.1% Tween 20 (Washing Buffer) using an ELISA plate washer, the wells were blocked by adding 300 μL of SuperBlock reagent (Pierce) per well. After 30 minutes of blocking, the wells were washed with Washing Buffer and excess liquid was removed.
(§4) As a background control, 100 μl of ELISA Buffer was added. The ELISA plate was incubated at room temperature for 90 min. […] The plate was incubated at room temperature for 30 min and washed with Washing Buffer. For color development, 100 μl/well of ABTS Peroxidase Substrate (Kirkegaard & Perry Laboratories) was added. Color development was stopped by adding 100 μl/well of 2% oxalic acid. […] The absorbances were plotted against the log of the competitor concentration, curves were fit to the data points (using Prism) and the IC50 was determined for each antibody using methods well-known in the art.

[8] = biological target: T7, β-amyloid peptide (1-42); assay: BIAcore 2000 SPR; antibody captured, Aβ flowed over; biphasic, first affinity; Aβ 1-42; biphasic, high-affinity component
Procedure: as §2

[9] = biological target: T7, β-amyloid peptide (1-42); assay: competitive ELISA on coated Aβ 1-42 against biotinylated Mu10D5; mean of three experiments (SD 11.8 µg/mL), first set; first set of three experiments (SD 11.8 µg/mL)
Procedure: as §3, §4

[10] = biological target: T7, β-amyloid peptide (1-42); assay: BIAcore 2000 SPR; antibody captured, Aβ flowed over; biphasic, second affinity; Aβ 1-42; biphasic, low-affinity component
Procedure: as §2

binding result [1]: binds | binding result [2]: no binding | binding result [3]: no binding | binding result [4]: binds | binding result [5]: no binding | Kd [6]: 209 nM | IC50 [7]: 16 µg/mL | Kd [8]: 0.19 nM | IC50 [9]: 49.1 µg/mL | Kd [10]: 1020 nM
B1: humanized 10D5 antibody (antibody, human IgG1, kappa, V domains shown)
VH: QVTLKESGPVLVKPTETLTLTCTFSGFSLSTSGMGVSWIRQPPGKALEWLAHIYWDDDKRYNPSLKSRLTISKDTSKSQVVLTMTNMDPVDTATYYCVRRPITPVLVDAMDYWGQGTLVTVSS
VL: DVVMTQSPLSLPVTLGQPASISCRSSQNIIHSNGNTYLEWYLQKPGQSPRLLIYKVSNRFSGVPDRFSGSGSGTDFTLKISRVEAEDVGVYYCFQGSHVPLTFGGGTKVEIKR
notes: also called Hu10D5
